According to patent US20140017242A1, “ANTI-BRADYKININ B2 RECEPTOR (BKB2R) MONOCLONAL ANTIBODY” (Diamedica, Inc., priority 2010, published 2014):
One block for each molecule: values may come before it. Where no end group is shown, it is not given here.

Assays:
[1] = target: T1, BKB2 receptor (Homo sapiens, UniProt P30411); conditions: BKB2 receptor agonist; cited from earlier work
T1 sequence (P30411 1-391): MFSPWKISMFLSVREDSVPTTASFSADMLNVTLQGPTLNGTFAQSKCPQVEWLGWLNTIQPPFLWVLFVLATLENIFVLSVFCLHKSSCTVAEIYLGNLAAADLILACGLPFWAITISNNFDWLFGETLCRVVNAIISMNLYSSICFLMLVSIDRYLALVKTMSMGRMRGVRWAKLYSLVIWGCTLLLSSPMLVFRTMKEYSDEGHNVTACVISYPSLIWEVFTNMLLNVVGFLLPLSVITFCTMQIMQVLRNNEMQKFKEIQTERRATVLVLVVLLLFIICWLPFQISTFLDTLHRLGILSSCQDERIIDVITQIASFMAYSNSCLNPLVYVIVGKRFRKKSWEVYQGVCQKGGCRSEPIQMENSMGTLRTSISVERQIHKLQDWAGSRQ

[2] = cited from earlier work
[3] = system: MV-4-11; assay: MTT Cell Proliferation Assay, MV-4-11; format: cell-based, human; conditions: 120 hours of exposure
Text: (§1) This Example describes characterization of the cytotoxic activity of herein described anti-BKB2R monoclonal antibodies against a panel of cancer cell lines. BxPC-3 is a human adenocarcinoma cell line originally isolated from the pancreas (pancreatic cancer) (ATCC # CRL-1687; Tan et al., Cancer Invest. 4: 15-23, 1986. PubMed: 3754176). MV-4-11 is a human biphenotypic B myelomonocytic leukemia (mixed-lineage leukemia, MLL-AF4) cell line originally isolated from the peripheral blood (ATCC # CRL-959; Lange et al., Blood 70: 192-199, 1987. PubMed: 3496132). Hep G2 is a human hepatocellular carcinoma cell line isolated from the liver (liver cancer) (ATCC # HB-8065; Aden et al., Nature 282: 615-616, 1979. PubMed: 233137). RS4;11 is a human acute lymphoblastic leukemia (mixed-lineage leukemia, MLL-AF4) cell line isolated from the bone marrow (ATTC # CRL-1873) Stong et al., Blood 65: 21-31, 1985. PubMed: 3917311). HT-29 is a human colorectal adenocarcinoma (ATTC # HTB-38) cell line isolated from the colon (colon cancer). Fogh et al., J. Natl. Cancer Inst. 58: 209-214, 1977. PubMed: 833871). NUGC-4 is a human stomach carcinoma isolated from the stomach paragastiric lymph node (JCRB # JCRB0834; Akiyama et al., Jpn. J. Surg., 18: 438-446, 1988). […]
(§2) The anti-proliferative activity of test compounds against the indicated cell lines was evaluated in vitro using the ATCC's MTT Cell Proliferation Assay (Catalog No. 30-1010K). After the 120 hour incubation with drug (e.g., anti-BKB2R mAb or cisplatin), cell proliferation was measured by addition of MTT reagent to each well and incubation for an additional 4 hrs. […] Optical absorbance (570 nm) of the test wells was measured and then quantitated relative to control wells that received no drug. Results were expressed as percent inhibition versus compound concentration and graphed, as shown in FIGS. 19-25, for cell lines BxPC-3, MV-4;11, HepG2, RS-4;11, HT-29, NUGC-4, and PC-3, respectively.

[4] = system: BxPC-3; assay: MTT Cell Proliferation Assay, BxPC-3; format: cell-based, human; conditions: 120 hours of exposure
Text: as §1, §2

[5] = system: PC-3; assay: MTT Cell Proliferation Assay, PC-3; format: cell-based, human; conditions: 120 hours of exposure
Text: as §1, §2

[6] = system: HT-29; assay: MTT Cell Proliferation Assay, HT-29; format: cell-based, human; conditions: 120 hours of exposure
Text: as §1, §2

[7] = system: NUGC-4; assay: MTT Cell Proliferation Assay, NUGC-4; format: cell-based, human; conditions: 120 hours of exposure
Text: as §1, §2

[8] = system: Hep G2; assay: MTT Cell Proliferation Assay, Hep G2; format: cell-based, human; conditions: 120 hours of exposure
Text: as §1, §2

[9] = system: RS-4;11; assay: MTT Cell Proliferation Assay, RS-4;11; format: cell-based, human; conditions: 120 hours of exposure
Text: as §1, §2

[10] = target: T1, BKB2 receptor; assay: Intracellular calcium release in CHO-K1/B2/Gα15 cells (FLIPR Calcium 4); format: cell-based; design: expressed in transfected cells; conditions: bradykinin positive control (10 uM in the method); mean+/−SD, n=2
Description: A stable CHO cell line expressing the human BKB2 receptor (CHO-K1/B2/Gα15) was used for the screening. The antibody was diluted to five different concentrations, from 0.5 mg/ml, via three-fold dilution increments, and screened on duplicate cell samples.
Expression and functional activity of the human BKB2 receptor in the CHO-K1/B2/Gα15 cell line were validated by exposure to the positive control, bradykinin.
To perform the assay, CHO-K1/B2/Gα15 cells were seeded in wells of a 384-well black-wall, clear-bottom plate at a density of 20,000 cells per well in 20 μL of growth medium 20 hours prior to the day of experiment, and maintained at 37° C./5% CO2. 20 μL of dye-loading solution (FLIPR™ Calcium 4 assay kit, Molecular Devices, Sunnyvale, Calif.) was added into each well and the plate was placed into a 37° C. incubator for 60 minutes, followed by 15 minutes at room temperature. The total reading time was 120 sec. After a 20-second reading to establish the baseline, the antibody or agonist were added to selected wells and the fluorescence signal was captured for another 100 seconds (21 s to 120 s). Readings from wells containing cells stimulated with assay buffer (0.03% Na3N PBS) containing 1% DMSO were chosen as the background values for screening; readings from wells containing cells stimulated with the agonist bradykinin (at 10 uM) were chosen as the positive control.

[11] = target: human bradykinin B2 receptor (BKB2R) (human) (UniProt P30411); assay: cell-based or functional assay
[12] = target: T2, human BKB2R-derived epitope peptide (SEQ ID NO:73), PEG-biotin (human, also: PEG-biotin, site not given here); assay: BLI (Octet), peptide-PEG-biotin on streptavidin sensor, antibody 3333 nM; antibody 3333 nM row; the same constants are printed for all four ab 404 concentrations
T2 construct: also called immunogenic human BKB2R peptide fragment
T2 peptide: KEYSDEGHNVTAC

[13] = target: T2, human BKB2R-derived epitope peptide …; assay: BLI (Octet), peptide-PEG-biotin on streptavidin sensor, antibody 833 nM
[14] = target: T2, human BKB2R-derived epitope peptide …; assay: BLI (Octet), peptide-PEG-biotin on streptavidin sensor, antibody 1000 nM
[15] = target: T2, human BKB2R-derived epitope peptide …; assay: BLI (Octet), peptide-PEG-biotin on streptavidin sensor, antibody 3333 nM
[16] = target: T2, human BKB2R-derived epitope peptide …; assay: BLI (Octet), peptide-PEG-biotin on streptavidin sensor, antibody 1667 nM
[17] = target: T2, human BKB2R-derived epitope peptide …; assay: BLI (Octet), peptide-PEG-biotin on streptavidin sensor, antibody 250 nM
Description: (§3) For the Octet study, antibodies were analyzed by kinetic titration of the antibodies. Antibodies were prepared in kinetic buffer (0.001 M phosphate buffered saline (NaCl 0.0138 M; KCl-0.00027 M); pH 7.4, at 25° C., 0.1 mg/ml BSA, 0.002% Tween and 0.005% Sodium Azide) followed by 1:2 serial dilutions.
(§4) Sensor Prep: Streptavidin biosensors (FortéBio Inc, Menlo Park, Calif.) were coated by incubation in a solution containing a peptide ([…]-PEG-biotin) (Biosyn, Lewisville, Tex.) at 50 μg/ml (300 seconds/1000 rpm shaking). 96 well half-volume plates were used for testing. 90 μl of sample was plated per well. Sensors were allowed to equilibrate to baseline in kinetic buffer (60 seconds/1000 rpm). The sensors were then placed into the various antibody dilutions to allow binding (association) to the probe for 500 seconds/1000 rpm, and measurements were taken. The sensors were then moved into kinetic buffer without antibody for dissociation (500 seconds/1000 rpm), and measurements were taken. Octet system software calculated kinetic constants for on rate/off rate/affinity.
(§5) For test humanized monoclonal antibodies, the highest concentration used was 500 nM followed by 1:2 dilutions. Each concentration was tested twice. The HC and LC represented the mouse original 5F12G1 VH and VL sequences.

[18] = target: T2, human BKB2R-derived epitope peptide …; assay: BLI (Octet), peptide-PEG-biotin on streptavidin sensor, antibody 500 nM
Outline: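 Streptavidin biosensors loaded with biotin-PEG peptide at 50 μg/ml; antibodies in PBS-based kinetic buffer pH 7.4 with BSA and Tween at 25° C, 1:2 serial dilutions from 500 nM for humanized antibodies. Association and dissociation 500 s each; on rate, off rate and affinity fitted by instrument software, each concentration in duplicate.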

[19] = target: T2, human BKB2R-derived epitope peptide …; assay: BLI (Octet), peptide-PEG-biotin on streptavidin sensor, antibody 500 nM; antibody 500 nM (the 250 nM row r17 gives 4.41E-07 M)
Description: as §3, §4, §5

Molecule: kallidin
Kd [1]: ~0.89 nM
short lived, in vivo [2]: ~30 s

Molecule: N.N.[Cl][Pt][Cl] [Cisplatin, cisplatin]
EC 50 Values (ng/ml) MV-4-11 [3]: 347 ng/mL
EC50 ([3]; read-out: EC 50 MV-4-11, value in brackets): 1200 nM
EC 50 Values (ng/ml) BxPC-3 [4]: 204 ng/mL
EC50 ([4]; read-out: EC 50 BxPC-3, value in brackets): 700 nM
EC 50 Values (ng/ml) PC-3 [5]: 753 ng/mL
EC50 ([5]; read-out: EC 50 PC-3, value in brackets): 2500 nM
EC 50 Values (ng/ml) HT-29 [6]: 698 ng/mL
EC50 ([6]; read-out: EC 50 HT-29, value in brackets): 2300 nM
EC 50 Values (ng/ml) NUGC-4 [7]: 1200 ng/mL
EC50 ([7]; read-out: EC 50 NUGC-4, value in brackets): 4100 nM
EC 50 Values (ng/ml) Hep G2 [8]: 239 ng/mL
EC50 ([8]; read-out: EC 50 Hep G2, value in brackets): 800 nM
EC 50 Values (ng/ml) RS-4;11 [9]: 344 ng/mL
EC50 ([9]; read-out: EC 50 RS-4;11, value in brackets): 1100 nM

Molecule: RPPGFSPFR [bradykinin]
percentage of activation [10]: 93.1+/−5.7%

Molecule: bradykinin (from UniProt P01042 381-389) (peptide)
ED50 (intracellular calcium release, FLIPR, CHO-K1/B2/Gα15 cells) [11]: 0.95 nm/l
percentage of activation (intracellular calcium release, FLIPR, CHO-K1/B2/Gα15 cells) [11]: 93.1%

Kd [12]: 462 nM
Kd [13]: 462 nM
koff [13]: 0.00109 s⁻¹
kon [13]: 2350 M⁻¹ s⁻¹
Kd [14]: 462 nM
koff [14]: 0.00109 s⁻¹
kon [14]: 2350 M⁻¹ s⁻¹
koff [15]: 0.00109 s⁻¹
kon [15]: 2350 M⁻¹ s⁻¹
Kd [16]: 462 nM
koff [16]: 0.00109 s⁻¹
kon [16]: 2350 M⁻¹ s⁻¹
B1: murine monoclonal anti-BKB2R antibody 5F12G1 (antibody, IgG2b, V domains shown)
VH: EVKLEESGGGLVQPGGSMKLSCVVSGFTFSDYWMSWVRHSPEMGLEWVAEIRLKSDNYATHYAESVKGRFTISRDDSKSRLYLQINSLRGEDTGIYYCTRDYYAMEYWGQGTSVTVSS
VL: DVVMTQTPLSLPVSLGDQASISCRSSQTIVHSNGKTYLEWYLQKPGQSPKLLIYKVSNRFSGVPDRFSGSGSGTEFTLKISRVETEDLGVYYCFQASHVPYTFGGGTKLEIK
notes: also called F512G1

Kd [17]: 441 nM
Max Response [17]: 0.286
koff [17]: 0.701 s⁻¹
kon [17]: 1.59e+06 M⁻¹ s⁻¹
Max Response [18]: 0.216
koff [18]: 0.942 s⁻¹
kon [18]: 404000 M⁻¹ s⁻¹
Kd [19]: 2330 nM
B2: humanized anti-BKB2R antibody L1/H1 (antibody, human IgG2, kappa, V domains shown)
VH: EVQLVESGGGLVQPGGSLRLSCAASGFTFSDYWMSWVRQAPGKGLEWVAEIRLKSDNYATHYAESVKGRFTISRDNAKNSLYLQMNSLRAEDTAVYYCTRDYYAMEYWGQGTLVTVSS
VL: DIVMTQSPLSLPVTPGEPASISCRSSQTIVHSNGKTYLEWYLQKPGQSPQLLIYKVSNRFSGVPDRFSGSGSGTDFTLKISRVEAEDVGVYYCFQASHVPYTFGQGTKLEIKR
notes: also called H1/L1
